B1: RUN and FYVE domain-containing protein 1, residues 639 to 698; numbered along this chain, Q96T51 (parent)
chain: WLKDDEATHCRQCEKEFSISRRKHHCRNCGHIFCNTCSSNELALPSYPKPVRVCDSCHTL

Variants of: B1
Experiment: abundance fitness (aPCA) (normalised: wild type 0, dead -1); higher = more abundant; growth selection in yeast, the domain comes from the species named
Settings: Homo sapiens

Abundance fitness, by site and new letter:
V53: I -0.385
Y47: F -0.05; W -0.382; G -0.045; S -0.081; H 0.09; Q -0.14; V -0.026; A 0.014; E -0.062; M -0.134; R -0.345; K -0.262; I -0.197; L -0.069; D 0; N 0.019; P -0.433
V51: F -0.571; P -0.403; I -0.249; Y -0.562; A -0.047; K -0.636; D -0.879; H -0.945; M -0.244; L -0.353; E -0.301; G -0.55; N -0.695; W -0.535; Q -0.17; C -1.01; T 0.184; S -0.345; R -0.474
K49: C -0.133; Y -0.34; N 0.012; V -0.14; E -0.083; D -0.001; R 0.016; G -0.057; Q -0.192; A -0.327; P -0.72; H -0.11; T -0.212; M -0.298; I -0.32; W -0.327; F -0.342; S -0.09
C54: Y -0.845; R -0.278; G -0.731
C57: V -0.665; T -0.467; R -0.673; W -0.682; D -0.619; A -0.756; Q -0.409; H -0.957; E -0.711; S -0.716; L -0.475; G -0.53; I -0.88; P -0.697; F -0.794; K -0.613; Y -0.828
P48: K -0.178; W -0.484; R -0.308; H -0.192; I -0.419; E 0.118; Y -0.582; A -0.167; F -0.818; M -0.309; N -0.324; Q -0.051
D55: Y -0.31; T -0.602
L60: G 0.229; V -0.202; N -0.126; E 0.031; Q 0.101; M -0.194; I 0.094; A 0.036; C -0.625; K 0.023; F -0.163; P -0.404; H -0.293; W -0.366; Y -0.422; S -0.067; T -0.087
P50: E -0.078; C -0.128; V -0.074; G -0.118; S -0.253; L -0.085; M -0.162; N -0.043; T -0.233; A 0.05; H -0.347; I -0.807; D -0.295; Q -0.219; F -0.211; W -0.549; Y -0.219; R -0.185; K 0.023
H58: W 0.022; L -0.114; T -0.226; V 0.037; D -0.495; K -0.091; F -0.105; S -0.179; N -0.242; P -0.667; E -0.062; I -0.157; A -0.1; Q 0.065; C -0.365; G -0.203; M -0.109; R -0.147
S46: R 0.19; P 0.069; W 0.077; N 0.252; V -0.265; Y -0.2; Q 0.009
S56: A 0.21; K 0.232; C 0.03; F 0.271; T 0.284; Y 0.188; P 0.24; H 0.355; I 0.136; N 0.246; M 0.165; G 0.3; D 0.097; E 0.331; Q 0.319; W 0.033
T59: D 0.062
